As a reminder, the Kd is a measure of binding affinity in units of concentration. Higher therefore signals lower affinity. What is called stoichiometry N is the number of molecules, sites or subunits per partner or assembly.

Where two headings read alike, the source gives them in different places.

Consider one substance from paper doi:10.1101/507483.

The target of assay [1] is TagA^ΔC, N-terminal domain of TagA from Thermoanaerobacter italicus (residues Met1-Gly195) (Thermoanaerobacter italicus). Put plainly: AUC.
The target is the same in assay [2]. Briefly: AUC. This is another data set of the same source.

As for “TagA^ΔC, N-terminal domain of TagA from Thermoanaerobacter italicus (residues Met1-Gly195) (domain or fragment)”, the figures for the Kd in assay [1] and in assay [2] were 7.4 µM and 3.5 µM, respectively. For the same substance, the stoichiometry N in assay [1] and in assay [2] was 2 each time.
